Data taken from US20030124108A1.

Target: purified PLD1 (isoform not distinguished in Example 4) (human)
Test: cell-based or functional assay

Row | Substance | activation of PLD1 at a maximally effective concentration (ARF1 4.7 M as printed) | half-maximal activation of PLD1 activity (headgroup release assay) | stimulation of PLD1 activity | activation of PLD1 at a maximally effective concentration (RhoA 3.8 M as printed) | activation of PLD1 at a maximally effective concentration (cdc42 5.5 M as printed) | activation of PLD1 at a maximally effective concentration (PMA-activated PKC- 0.043 M as printed)
1 | human ADP-ribosylation factor 1 (ARF1) (from UniProt P84077 2-181) | 49 fold | 0.2 M | 50 fold |  |  | 
2 | human RhoA with … at the amino terminus (from UniProt P61586 1-190) |  | 1 M | 10 fold | 13 fold |  | 
3 | human cdc42 with … at the amino terminus (from UniProt P60953 1-188) |  | 1 M | 5 fold |  | 10 fold | 
4 | human protein kinase C- (isoform letter lost in print) (from UniProt P17252 2-672) (enzyme) |  |  |  |  |  | 28 fold
